This note sets out measurements from US20150196637A1.

Read-outs that look alike come from different tables or passages of the source.

Assay [1] concerns the target IgG1 heavy chain with CH3 construct 2 (K392D, K409D) and common light chain (human) [IgG part: P01857].
Assay [2] shares this target. Description: native MS, transfection #11 of Table 24; fibrinogen VH on construct 1 with fibrinogen VH on construct 2.
In assay [3] the target is IgG1 heavy chain with CH3 construct 64 (T366D) and common light chain (human) [IgG part: P01857].
The target in assay [4] is IgG1 heavy chain with CH3 construct 61 (L351K) and common light chain (human) [IgG part: P01857].
Assay [5] has as its target IgG1 heavy chain with CH3 construct 67 (K360D) and common light chain (human) [IgG part: P01857].
For assay [6], the target named is IgG1 heavy chain with CH3 construct 8 (Q347K) and common light chain (human) [IgG part: P01857].

With “IgG1 heavy chain with CH3 construct 1 (E356K, D399K) and common light chain (from UniProt P01857-1)”, the % of the mixture (peak height) amounted to 67% in assay [1] and 61% in assay [2].
Consider “IgG1 heavy chain with CH3 construct 61 (L351K) and common light chain (from UniProt P01857-1)”, for which, in assay [3], the AC found (%) was determined as 52%. The substance further registered an AA found (%) in assay [4] of 30%.
Consider “IgG1 heavy chain with CH3 construct 8 (Q347K) and common light chain (from UniProt P01857-1)”, for which, in assay [5], the AC found (%) was determined as 41%. Moreover, the AA found (%) in assay [6] was 34%.
